Reference: the domain aggregation screens of Martell et al. (2025)

Assay: soluble fraction after stress (log2 fold change); higher = more stays soluble; pooled small domains, quantitative proteomics
Details: stress: 50 degC
In short: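 After stress at 50°C, the amount of each protein still soluble was measured. This was done on pooled custom libraries of small protein domains, using high-throughput quantitative proteomics. The figure given is a base-two log fold change and stands for aggregation propensity, with higher values meaning more protein stays in solution.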

| Sequence | soluble fraction (log2) |
| --- | --- |
| HMYKNLRAFRESLGMTQKDFAASLSIGLSTYNGYEVGAREPKSDFWIAVARKYGVTIDYLMGFSDDPHK | -1.11 |
| HMYKSSRASKSEVNKFLKFIIQSLDKRGFLQPGHKRQSMIRNIENIFYRTNLSDQEIRILLGIFSTLNK | -0.62 |
| HMYLELVTKEGGSFDEPDYWGRRKLAYEIAGKTEGNYVVVKYTAEPATSDELDRVLNLNESVIRTKILRK | 0.0508 |
| HMYLHSEFSPVTGQELHMKYDDSSTEEDPVMLVEGKDIQGNDFVKKIHLNDVDPENATPAEMTALRVHL | -0.541 |
| HMYLLPVTSTELKGNYPNPFNPETTISFDLKDAERVNLSIYNLKGQLVRTLVNSDLPIGRHRLIWDGNDS | -0.603 |
| HMYLPGERMRIKITALGSNPKQGVGYLPDGMMVVVDEAATLVGRFVEIEFVKFLQTNSGRMMFAKVAT | -0.224 |
| HMYMKGKVKWFDSKKGYGFITSENGKEIFVHFSGIAAKGFKSLNEGQTVEFEVANGAKGEQAVNVTV | -0.804 |
| HMYMKTITEQFGERLKKIRTQKSLSQEQLSYLADIDRSYISDVERGARNISLENIYKLASALNIPPYLVLL | -0.273 |
| HMYMLYQQLADSLRDKIYEGTYTFGDKIPSERTLAATFGISHLTVRKALAILEEEGLLDRRQGNGTFVRV | -1.02 |
| HMYNIDSFMTKNYPTMERFTLSDVQKKYKTTFGLFVKQDELASMIEKTGRFNITSSKNVKYVNR | -1.77 |
| HMYNPAYDAEIKVILELARHGYWEEARERADELLKAAPDDTGVKRIQTWVRQQEQRMREQAIEDSIRA | -0.0287 |
| HMYPEETVNKILDVSMQLFLEKGYEHTSIQDIVNHLGGLSKGAIYHHFKSKEDILDGVMNKLYQNN | -0.816 |
| HMYPGQILEIYLDEIKRLYLNGLSSADIFAEIKEGSIPSVKKAIRSMKDGSAPVKITEAEESTRIAPS | -0.441 |
| HMYPTPAAANRHFLDKWGHQEAYLGKVLNSRSRASEILNGKRPLSLSDLRTLRDNLGIPVDLLL | -0.489 |
| HMYQKERDKEISEIETFLKKITNANGTRAYSDESIADMSYVELLNLYEGITSKLTEEEIENI | 0.131 |
| HMYQPLYEQIKRMLTQSLIDGEWKAGEMIPSEMELAARFKVSQGTVRKAIDELVSENILMRRQGKGTFVH | -0.231 |

| Sequence | soluble fraction (log2) |
| --- | --- |
| HMYSDDNKSILNLIDNLFNKENIKIDINAKKLLSNYLGVDRLVTKGEIEKAILFAGTKKHLSIEDISAFLS | -0.0337 |
| HMYSFPHQLLKLRTEKQLSQAELATRLFVSRQAVSKWENGDAEPSIDKLILLAKVFNVSLDRLILGT | -1.43 |
| HMYSIDNPPDWLKNLPKGAIRIGVEVFNQVLSKADDEDRARMAAWSAIKAKYEKADDGQWQPKAA | -0.0798 |
| HMYSNDEIVNYLKNYIFDNFNLNELSDEELEEKIAELVQQQFAGQLLSLDEKVKLVNQVYSSIR | 0.0129 |
| HMYSRQRDLILKALRENVVHPTADFIYTVLKEKEPNLSLATVYRNLNLLANEGIIRKIEGLDGVAHFDH | -1.46 |
| HMYSVVGKKGIVIEDINYSTGTGQIKSEGEVWSAKTNEQINIPKGTEIEIESIDGVKVIVKPL | 0.0184 |
| HMYTDGVPALTDLKKESKPGRRQYVGVEDIPKVLGGLGITILSTSKGLMSGHQAKKKNIGGELIASV | 0.258 |
| HMYTEIDDVKDLLSKIPSVNKLTTADRGMVQAARNAYDALDEDQKLYITIADVEKFNAAVEWMEEH | 0.0056 |
| HMYTVRDGDTVFGILNRFGVSLDELLSLNPELSNGLKAGMVLKIK | -0.491 |
| HMYVADVVGMGIKDALYILENQGLRVVFTGKGVVKNQSIAVGEKIIKGEKIVLML | -1.7 |
| HMYVQDPVDRLVLESALRLLREQEREIIFLHLVAGLKHREIAGLLHLPLSTVLSGYRRALTKMKSYLEE | -0.115 |
| HMYVTGETIRHLRTQRRMTQEQLAETLGVTGKAVSKWETGRGFPDMSLLEPLARALRISVPELLSGE | -0.614 |
| HMYYNQGILKSGASVYGEPGITSSHRLEIPSGSFVDIVQEKDEWVYYEKNHVNHGWVLRENIYIPSL | 0.0681 |
| HMYYQEDHDIILEETEDVTDPYLITLRGYIFLNNLQWVAARQAFLSADERFRHRHYSALIAPIMQTIDNAA | -0.013 |
| HMYYSERILTILEERGISPYRVSKETGISQSVFSNWKRKPTSRITAANLERLADYLGLPVEVLTG | -3.45 |
